Assay results published in US20240158538A1 (HUMMINGBIRD BIOSCIENCE HOLDINGS PTE, published 2024).
Where two headings read alike, the source gives them in different places.

Assays:
[1] = biological target: T1, CTLA4 (ELISA coat) (human, UniProt P16410 36-162, limits assumed); assay: ELISA, CTLA4 coated
T1 construct: Species read from the list 'human VISTA, PD-1, PD-L1, ...'

[2] = biological target: T2, B7H3 (ELISA coat) (human, UniProt Q5ZPR3 29-461, limits assumed); assay: ELISA, B7H3 coated
T2 construct: Species read from the list 'human VISTA, PD-1, PD-L1, ...'; also called CD276
T2 sequence (looked up): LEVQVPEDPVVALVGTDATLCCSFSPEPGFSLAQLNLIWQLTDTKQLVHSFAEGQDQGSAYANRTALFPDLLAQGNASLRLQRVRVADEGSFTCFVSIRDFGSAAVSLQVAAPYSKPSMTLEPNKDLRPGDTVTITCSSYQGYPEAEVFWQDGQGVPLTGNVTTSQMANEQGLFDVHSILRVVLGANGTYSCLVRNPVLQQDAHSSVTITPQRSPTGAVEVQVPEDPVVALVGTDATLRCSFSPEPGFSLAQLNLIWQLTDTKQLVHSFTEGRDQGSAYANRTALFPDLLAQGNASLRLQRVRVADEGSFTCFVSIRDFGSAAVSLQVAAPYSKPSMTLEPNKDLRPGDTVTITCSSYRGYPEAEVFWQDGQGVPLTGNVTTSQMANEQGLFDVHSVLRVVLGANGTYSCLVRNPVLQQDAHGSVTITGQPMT

[3] = biological target: T3, PD-1 (ELISA coat) (human, UniProt Q15116 25-167, limits assumed); assay: ELISA, plate coated with PD1
T3 construct: Species read from the list 'human VISTA, PD-1, PD-L1, ...'

[4] = biological target: T4, B7H4 (ELISA coat) (human, UniProt Q7Z7D3 25-258, limits assumed); assay: ELISA, plate coated with B7H4
T4 construct: Species read from the list 'human VISTA, PD-1, PD-L1, ...'; also called VTCN1
T4 sequence (looked up): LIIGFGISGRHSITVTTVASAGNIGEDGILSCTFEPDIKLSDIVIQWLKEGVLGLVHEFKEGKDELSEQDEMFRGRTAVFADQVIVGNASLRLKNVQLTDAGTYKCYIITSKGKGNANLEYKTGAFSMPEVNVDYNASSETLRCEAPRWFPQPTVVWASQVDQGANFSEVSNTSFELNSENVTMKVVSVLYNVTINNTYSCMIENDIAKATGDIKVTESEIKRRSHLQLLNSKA

[5] = biological target: T5, human PD-L1 (ELISA coat) (human, UniProt Q9NZQ7 19-239); assay: ELISA, human PD-L1 coated
[6] = biological target: T6, B7H7 (ELISA coat) (human, UniProt Q9UM44 23-344, limits assumed); assay: ELISA, plate coated with B7H7
T6 construct: Species read from the list 'human VISTA, PD-1, PD-L1, ...'; also called HHLA2
T6 sequence (looked up): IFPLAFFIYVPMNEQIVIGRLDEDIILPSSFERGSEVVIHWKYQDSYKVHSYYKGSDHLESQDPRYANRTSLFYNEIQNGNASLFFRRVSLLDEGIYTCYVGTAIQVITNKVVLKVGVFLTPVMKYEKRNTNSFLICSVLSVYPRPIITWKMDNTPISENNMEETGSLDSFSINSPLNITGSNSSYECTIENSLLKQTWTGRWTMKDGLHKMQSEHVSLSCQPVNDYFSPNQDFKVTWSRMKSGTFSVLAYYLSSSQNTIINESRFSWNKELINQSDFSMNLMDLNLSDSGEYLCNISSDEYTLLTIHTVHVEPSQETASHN

[7] = biological target: human HER3 (human, UniProt P21860 20-643); assay: ELISA, human HER3 coated
[8] = biological target: T7, B7H6 (ELISA coat) (human, UniProt Q68D85 25-262, limits assumed); assay: ELISA, plate coated with B7H6
T7 construct: Species read from the list 'human VISTA, PD-1, PD-L1, ...'; also called NCR3LG1
T7 sequence (looked up): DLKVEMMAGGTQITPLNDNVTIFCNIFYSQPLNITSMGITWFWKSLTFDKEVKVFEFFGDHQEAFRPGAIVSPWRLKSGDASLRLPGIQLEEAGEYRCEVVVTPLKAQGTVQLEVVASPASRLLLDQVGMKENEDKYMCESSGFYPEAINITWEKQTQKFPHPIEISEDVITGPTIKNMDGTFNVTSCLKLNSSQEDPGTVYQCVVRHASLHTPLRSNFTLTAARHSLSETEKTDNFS

[9] = biological target: T7, B7H6 (ELISA coat); assay: ELISA, plate coated with B7H6; remark: listed apart in the source
[10] = biological target: T2, B7H3 (ELISA coat); assay: ELISA, plate coated with B7H3
[11] = biological target: T3, PD-1 (ELISA coat); assay: ELISA, plate coated with PD1; remark: listed apart in the source
[12] = biological target: T6, B7H7 (ELISA coat); assay: ELISA, plate coated with B7H7; remark: listed apart in the source
[13] = biological target: T5, human PD-L1 (ELISA coat); assay: ELISA, plate coated with B7H1 (PDL1)
[14] = biological target: T4, B7H4 (ELISA coat); assay: ELISA, plate coated with B7H4; remark: listed apart in the source
[15] = biological target: T1, CTLA4 (ELISA coat); assay: ELISA, plate coated with CTLA4
[16] = biological target: T7, B7H6 (ELISA coat); assay: ELISA, plate coated with B7H6; remark: listed apart in the source
[17] = biological target: T5, human PD-L1 (ELISA coat); assay: ELISA, plate coated with B7H1 (PDL1); remark: listed apart in the source
[18] = biological target: T2, B7H3 (ELISA coat); assay: ELISA, plate coated with B7H3; remark: listed apart in the source
[19] = biological target: T1, CTLA4 (ELISA coat); assay: ELISA, plate coated with CTLA4; remark: listed apart in the source
[20] = biological target: T6, B7H7 (ELISA coat); assay: ELISA, plate coated with B7H7; remark: listed apart in the source
[21] = biological target: T4, B7H4 (ELISA coat); assay: ELISA, plate coated with B7H4; remark: listed apart in the source
[22] = biological target: T3, PD-1 (ELISA coat); assay: ELISA, plate coated with PD1; remark: listed apart in the source
[23] = biological target: T7, B7H6 (ELISA coat); assay: ELISA, plate coated with B7H6; remark: listed apart in the source
[24] = biological target: T4, B7H4 (ELISA coat); assay: ELISA, plate coated with B7H4; remark: listed apart in the source
[25] = biological target: T5, human PD-L1 (ELISA coat); assay: ELISA, plate coated with B7H1 (PDL1); remark: listed apart in the source
[26] = biological target: T6, B7H7 (ELISA coat); assay: ELISA, plate coated with B7H7; remark: listed apart in the source
[27] = biological target: T3, PD-1 (ELISA coat); assay: ELISA, plate coated with PD1; remark: listed apart in the source
[28] = biological target: T2, B7H3 (ELISA coat); assay: ELISA, plate coated with B7H3; remark: listed apart in the source
[29] = biological target: T1, CTLA4 (ELISA coat); assay: ELISA, plate coated with CTLA4; remark: listed apart in the source

T1 sequence (P16410 36-162 limits assumed): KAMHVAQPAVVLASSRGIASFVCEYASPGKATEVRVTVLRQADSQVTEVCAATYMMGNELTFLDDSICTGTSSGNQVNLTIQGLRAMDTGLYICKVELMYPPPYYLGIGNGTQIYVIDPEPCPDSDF
T3 sequence (Q15116 25-167 limits assumed): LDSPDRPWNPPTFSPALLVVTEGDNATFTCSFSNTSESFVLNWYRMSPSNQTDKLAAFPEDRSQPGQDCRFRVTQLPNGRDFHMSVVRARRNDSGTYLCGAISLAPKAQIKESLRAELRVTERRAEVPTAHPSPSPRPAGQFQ
T5 sequence (Q9NZQ7 19-239 limits assumed): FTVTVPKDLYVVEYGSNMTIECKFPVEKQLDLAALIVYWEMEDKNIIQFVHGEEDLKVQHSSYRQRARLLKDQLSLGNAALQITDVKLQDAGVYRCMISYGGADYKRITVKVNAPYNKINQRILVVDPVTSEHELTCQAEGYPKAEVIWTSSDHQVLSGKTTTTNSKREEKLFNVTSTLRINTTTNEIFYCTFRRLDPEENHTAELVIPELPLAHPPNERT

B1: anti-VISTA clone 4M2-C12 IgG1 (antibody)
heavy: not shown
light: DIVITQTPAILSTSPGEKVTMTCRASSSVGYIHWYQQKPGSSPKPWIYATSNLASGVPARFSGSGSGTSNSLTITRVEAEDAATYYCQQWSSYPPITFGGGTKLEVKRTVAAPSVFIFPPSDEQLKSGTASVVCLLNNFYPREAKVQWKVDNALQSGNSQESVTEQDSKDSTYSLSSTLTLSKADYEKHKVYACEVTHQGLSSPVTKSFNRGEC
notes: also called V4; 4M2-C12-hIgG1
B1: no binding (tested: log M about -7.5) [1]; no binding (tested: log M about -7.5) [2]; no binding (tested: log -7.5 (about 3e-8 M)) [3]. B1: no binding (tested: log -7.5 (about 3e-8 M)) [4]; no binding (tested: log M about -6.7) [5]; no binding (tested: log -7.5 (about 3e-8 M)) [6]. B1: no binding (tested: log M about -6.2) [7]; no binding (tested: log -7.5 (about 3e-8 M)) [8].

B2: anti-VISTA clone V4-C24 IgG1 (antibody, V domains shown)
VH: QVQLQESGPGLVKPSDTLSLTCTVSGYSITSDYTWNWIRQTPGKGLEWIGHITYSGSVSYNPSLRSRVTISRDTSKNQFSLKLSSVTAADTATYSCARALYYPWYFDVWGTGTTVTVSS
VL: EIVLTQSPATLSLSPGERATLSCRASSSVGYIHWYQQKPGQAPRPLIYTTSYRATGIPARFSGSGSGTDNTLTISSLEPEDSAVYYCQQWSSYPPITFGGGTKLEVKR
notes: Human IgG1/kappa
B2: no binding (tested: log -7.5 (about 3e-8 M)) [9]; no binding (tested: log -7.5 (about 3e-8 M)) [10]; no binding (tested: log -7.5 (about 3e-8 M)) [11]. B2: no binding (tested: log -7.5 (about 3e-8 M)) [12]; no binding (tested: log -7.5 (about 3e-8 M)) [13]; no binding (tested: log -7.5 (about 3e-8 M)) [14]. B2: no binding (tested: log -7.5 (about 3e-8 M)) [15].

B3: anti-VISTA clone V4-C26 IgG1 (antibody, V domains shown)
VH: QVQLQESGPGLVKPSDTLSLTCTVSGYSITSDYTWNWIRQTPGKGLEWIGHITYSGSVSYNPSLRSRVTISRDTSKNQFSLKLSSVTAADTATYSCARALYYPWYFDVWGTGTTVTVSS
VL: EIVLTQSPATLSLSPGERATLSCRASSSVGYIHWYQQKPGQAPRPIIYTTSNRATGIPARFSGSGSGTDNTLTISSLEPEDSAVYYCQQWSSYPPITFGGGTKLEVKR
notes: Human IgG1/kappa
B3: no binding (tested: log -7.5 (about 3e-8 M)) [16]; no binding (tested: log -7.5 (about 3e-8 M)) [17]; no binding (tested: log -7.5 (about 3e-8 M)) [18]. B3: no binding (tested: log -7.5 (about 3e-8 M)) [19]; no binding (tested: log -7.5 (about 3e-8 M)) [20]; no binding (tested: log -7.5 (about 3e-8 M)) [21]. B3: no binding (tested: log -7.5 (about 3e-8 M)) [22].

B4: anti-VISTA clone V4-C27 IgG1 (antibody, V domains shown)
VH: QVQLQESGPGLVKPSDTLSLTCTVSGYSITSDYTWNWIRQTPGKGLEWIGHITYSGSVSYNPSLRSRVTISRDTSKNQFSLKLSSVTAADTATYSCARALYYPWYFDVWGTGTTVTVSS
VL: EIVLTQSPATLSLSPGERATLSCRASSSVGYIHWYQQKPGQAPRPLIYATYNRATGIPARFSGSGSGTDNTLTISSLEPEDSAVYYCQQWSSYPPITFGGGTKLEVKR
notes: Human IgG1/kappa
B4: no binding (tested: log -7.5 (about 3e-8 M)) [23]; no binding (tested: log -7.5 (about 3e-8 M)) [24]; no binding (tested: log -7.5 (about 3e-8 M)) [25]. B4: no binding (tested: log -7.5 (about 3e-8 M)) [26]; no binding (tested: log -7.5 (about 3e-8 M)) [27]; no binding (tested: log -7.5 (about 3e-8 M)) [28]. B4: no binding (tested: log -7.5 (about 3e-8 M)) [29].
